Measurements reported in IntAct's records for PubMed 14638859.

B1: ADP-ribosylation factor-binding protein GGA1 (Homo sapiens), Q9UJY5 (parent)
chain: MEPAMEPETLEARINRATNPLNKELDWASINGFCEQLNEDFEGPPLATRLLAHKIQSPQEWEAIQALTVLETCMKSCGKRFHDEVGKFRFLNELIKVVSPKYLGSRTSEKVKNKILELLYSWTVGLPEEVKIAEAYQMLKKQGIVKSDPKLPDDTTFPLPPPRPKNVIFEDEEKSKMLARLLKSSHPEDLRAANKLIKEMVQEDQKRMEKISKRVNAIEEVNNNVKLLTEMVMSHSQGGAAAGSSEDLMKELYQRCERMRPTLFRLASDTEDNDEALAEILQANDNLTQVINLYKQLVRGEEVNGDATAGSIPGSTSALLDLSGLDLPPAGTTYPAMPTRPGEQASPEQPSASVSLLDDELMSLGLSDPTPPSGPSLDGTGWNSFQSSDATEPPAPALAQAPSMESRPPAQTSLPASSGLDDLDLLGKTLLQQSLPPESQQVRWEKQQPTPRLTLRDLQNKSSSCSSPSSSATSLLHTVSPEPPRPPQQPVPTELSLASITVPLESIKPSNILPVTVYDQHGFRILFHFARDPLPGRSDVLVVVVSMLSTAPQPIRNIVFQSAVPKVMKVKLQPPSGTELPAFNPIVHPSAITQVLLLANPQKEKVRLRYKLTFTMGDQTYNEMGDVDQFPPPETWGSL
partner: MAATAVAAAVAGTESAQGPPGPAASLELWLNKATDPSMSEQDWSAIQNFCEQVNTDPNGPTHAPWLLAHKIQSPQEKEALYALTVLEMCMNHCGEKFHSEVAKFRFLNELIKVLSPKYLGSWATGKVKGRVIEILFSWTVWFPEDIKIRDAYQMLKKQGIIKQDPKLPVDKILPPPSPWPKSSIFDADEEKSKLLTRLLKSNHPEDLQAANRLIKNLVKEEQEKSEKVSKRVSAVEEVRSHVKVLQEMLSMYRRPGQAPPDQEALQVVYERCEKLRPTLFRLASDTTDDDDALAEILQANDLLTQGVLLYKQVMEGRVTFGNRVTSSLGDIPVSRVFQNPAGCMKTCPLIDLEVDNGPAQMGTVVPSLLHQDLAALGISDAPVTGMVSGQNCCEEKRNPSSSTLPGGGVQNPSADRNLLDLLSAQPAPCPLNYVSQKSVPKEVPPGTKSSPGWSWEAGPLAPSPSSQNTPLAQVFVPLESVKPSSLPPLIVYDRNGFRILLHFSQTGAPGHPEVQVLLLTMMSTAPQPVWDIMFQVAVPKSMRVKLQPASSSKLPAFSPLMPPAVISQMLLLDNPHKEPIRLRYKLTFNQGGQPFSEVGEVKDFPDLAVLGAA

Variants of: B1
Settings: with gga2_human GGA2, Q9UJY4

effect of a mutation on the interaction | Variant
with no effect | D358A
